Assays:
C2a, P06681 = target: T1, C2a, P06681
T1 chain: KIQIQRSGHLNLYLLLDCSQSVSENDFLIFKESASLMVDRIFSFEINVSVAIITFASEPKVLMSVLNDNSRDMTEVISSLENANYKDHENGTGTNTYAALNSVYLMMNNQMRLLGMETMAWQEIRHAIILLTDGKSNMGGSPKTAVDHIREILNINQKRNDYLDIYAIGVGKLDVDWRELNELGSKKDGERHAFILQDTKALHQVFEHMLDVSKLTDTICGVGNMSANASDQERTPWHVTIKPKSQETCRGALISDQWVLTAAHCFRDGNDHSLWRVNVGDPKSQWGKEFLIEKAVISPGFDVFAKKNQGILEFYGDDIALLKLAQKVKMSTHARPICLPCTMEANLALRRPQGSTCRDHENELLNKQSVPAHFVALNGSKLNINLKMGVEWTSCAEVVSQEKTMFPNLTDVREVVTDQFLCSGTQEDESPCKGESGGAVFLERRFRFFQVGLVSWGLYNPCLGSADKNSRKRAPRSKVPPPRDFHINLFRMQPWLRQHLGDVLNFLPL

C2, P06681 = target: T2, C2, P06681
T2 chain: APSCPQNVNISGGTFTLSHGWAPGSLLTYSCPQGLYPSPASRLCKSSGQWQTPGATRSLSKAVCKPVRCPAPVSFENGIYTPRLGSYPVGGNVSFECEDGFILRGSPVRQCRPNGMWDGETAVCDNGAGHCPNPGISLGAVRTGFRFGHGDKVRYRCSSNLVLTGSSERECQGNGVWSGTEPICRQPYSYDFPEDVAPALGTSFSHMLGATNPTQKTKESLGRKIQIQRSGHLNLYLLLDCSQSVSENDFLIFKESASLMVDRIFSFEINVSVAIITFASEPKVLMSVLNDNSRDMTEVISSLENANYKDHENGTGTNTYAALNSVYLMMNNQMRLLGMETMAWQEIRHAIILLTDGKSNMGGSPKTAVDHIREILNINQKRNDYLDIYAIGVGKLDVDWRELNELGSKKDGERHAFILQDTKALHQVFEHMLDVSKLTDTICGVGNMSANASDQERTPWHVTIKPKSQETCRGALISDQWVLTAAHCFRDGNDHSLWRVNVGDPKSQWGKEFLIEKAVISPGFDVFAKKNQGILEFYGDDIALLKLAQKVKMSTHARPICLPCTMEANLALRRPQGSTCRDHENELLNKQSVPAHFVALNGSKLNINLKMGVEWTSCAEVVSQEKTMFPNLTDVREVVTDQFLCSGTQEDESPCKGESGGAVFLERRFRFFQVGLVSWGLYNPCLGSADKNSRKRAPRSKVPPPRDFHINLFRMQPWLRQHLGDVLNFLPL

β-casein = target: T3, β-casein
T3 sequence (P02666 16-224, species assumed, looked up): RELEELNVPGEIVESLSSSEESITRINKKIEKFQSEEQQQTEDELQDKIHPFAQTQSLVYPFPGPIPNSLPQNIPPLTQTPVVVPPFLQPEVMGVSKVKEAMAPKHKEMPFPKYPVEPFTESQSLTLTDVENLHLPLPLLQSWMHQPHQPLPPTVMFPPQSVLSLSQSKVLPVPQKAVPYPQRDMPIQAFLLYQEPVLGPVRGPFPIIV

human C5a, P01031 = target: T4, human C5a, P01031
T4 chain: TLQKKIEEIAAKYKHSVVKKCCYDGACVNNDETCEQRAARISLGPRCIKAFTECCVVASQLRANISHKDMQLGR

C1s, P09871 = target: T5, C1s, P09871
T5 chain: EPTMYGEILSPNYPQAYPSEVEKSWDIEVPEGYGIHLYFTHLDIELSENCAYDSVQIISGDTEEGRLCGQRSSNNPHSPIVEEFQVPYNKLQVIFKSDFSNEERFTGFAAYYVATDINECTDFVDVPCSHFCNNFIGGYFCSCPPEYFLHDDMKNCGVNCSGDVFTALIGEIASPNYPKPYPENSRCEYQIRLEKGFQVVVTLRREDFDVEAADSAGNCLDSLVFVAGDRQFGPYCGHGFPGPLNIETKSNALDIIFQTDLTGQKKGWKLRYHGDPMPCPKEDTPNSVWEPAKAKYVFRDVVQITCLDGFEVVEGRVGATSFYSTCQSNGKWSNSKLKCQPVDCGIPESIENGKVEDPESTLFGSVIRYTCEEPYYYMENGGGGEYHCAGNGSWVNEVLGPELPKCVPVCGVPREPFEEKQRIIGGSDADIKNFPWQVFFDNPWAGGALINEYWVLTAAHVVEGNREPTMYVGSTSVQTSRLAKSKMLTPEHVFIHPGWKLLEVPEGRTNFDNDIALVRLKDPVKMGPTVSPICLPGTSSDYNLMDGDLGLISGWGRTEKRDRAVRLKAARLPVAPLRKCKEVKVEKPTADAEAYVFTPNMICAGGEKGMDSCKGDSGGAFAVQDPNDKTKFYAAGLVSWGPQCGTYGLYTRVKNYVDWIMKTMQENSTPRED

B1: PrtV(Pro-B) (protein)
chain: DTVNGSESVKTEATQASGSSVQDNATAKTTVTTNSNSSNNVSNVQTDTVKEAATSNVDSVASQNQATTAQQAKTTADTADQTVPPTTYKDHVKGNVQTAWDNGYKGQGMVVAVIDSGADTNHKDFSKAPESPAISKEDADKKISELGYGKYASEKFPFVYNYASRDNNWVKDDGPDASEHGQHVAGIIGADGQPNGNERYAVGVAPETQLMMMRVFNDQFADENTDDIAQAIYDAVKLGANVIQMSLGQGVAAANLNDVEQKAVEYATQHGVFVSISASNNGNSASVTGEEVPYKPGGADGNFEPFSSSTVANPGASRNAMTVAAENSVVGAGDDMADFSSWGPLQDFTLKPDVSAPGVSVTSTGNDNRYNTMSGTSMAGPFNAGVAALVMQRLKATTNLNGADLVQATKALIMNTAKPMTQQGYDTPVSPRRQGAGEIDAGAATESPVYVVAADGTSSVSLRKVGDSTQFALTFKNLSDKDQTYTFDDFGGGLTEVRDADTGTFHDVYLAGAHVYGNKTVTVKAGQSATYNFTLSLTGLKENQLVEGWLRFVGNDGQNQLVVPYLAYYGDMTSEDVFDKAANQEGTVYGGNYFVNEDNYPRGVADEDSLKALVNLEGNYNWQQVAKLYQDGKVAFSPNADGKSDLLKPYAFVKQNLKDLKVEVLDKSGKVVRVVADEQGLDKSYYESGVNKDVTLSVSMRNNPNTLAWDGKVYDDKAGEMVNAADGEYTYRYVATLYNDGVNKVQTADYPVVIDTTAPVLSNVKYDAATHTLSFDYKDTGSGFTDYSYAVVKVNDKTFGYKLNDGKNSKFLDAAKTSGTFKAVLGSDTLAALTAAKNALSVAVSDVADNTSTVTLLVNGNNDATTKVSVWNATNGLELDQSSPDYQAATSTYNLRGNATSDFYYNGALVQVDNSGNFVVPVSTSDTAVVFTSDAAGKNVVYKLNTATPKAVFAWQVNNTVKENFGIVLDTVVSNNKDDVVVQAAVTKGDNVEAYARDYFTGAVYKADVKDGLATFHVKVTNNSGRTVLLGWTEVVGPTFNDVQRTSANGVYLGVDTDTENPTPAPAFTSADQLGTNVVQEKADSATIGNPGDLPGHSLKDLTTRADANPDIHFDYLKDNDYNWVGAQAVKDGVYNPSTQVFTLTGKVDPNVKSLVVLGDSYNEDDPVNKVNLNSDGTFSFQFHTAPTSQRPVAYIYTKDDGSTTRGTMELILDTVLPTLSLNNVANLQLDSNGDYQVYTNNKDFSVSGEATDNLDGYRFFFNGDNDYREFHNSGVNFVAEAHQDGSTVTNPYPAYKFSKTFNLADATGETTHVYTLSVVDLTGNTVTRKFYVHY
**Q.** With B1 as the protein, how does the “digestion (SDS-PAGE)” value (haemoglobin) read?
**A.** did not digest

**Q.** What about the “casein activity assay (SDS-PAGE)” value (κ-casein) of the same protein?
**A.** cleaving only α-casein in a limited manner

**Q.** What about the “protein cleavage assay (SDS-PAGE)” value (IL-17) of the same protein?
**A.** has activities against

**Q.** What about the “digestion (SDS-PAGE)” value (fibrinogen) of the same protein?
**A.** did not digest

**Q.** And the “proteolytic activity (SDS-PAGE)” value (C2a, P06681)?
**A.** None of the complement proteins tested show evidence of breakdown

**Q.** What about the “casein activity assay (SDS-PAGE)” value (α-casein) of the same protein?
**A.** cleaving only α-casein in a limited manner

**Q.** What about the “protein cleavage assay (SDS-PAGE)” value (C3a, P01024) of the same protein?
**A.** has activities against

**Q.** And the “proteolytic activity (control of enzyme stock)” value (C3a, P01024)?
**A.** shown to be active against C3a

**Q.** And the “digestion (SDS-PAGE)” value (cytochrome C)?
**A.** did not digest

**Q.** And the “proteolytic activity (SDS-PAGE)” value (C2, P06681)?
**A.** None of the complement proteins tested show evidence of breakdown

**Q.** And the “protein cleavage assay (SDS-PAGE)” value (IL-3)?
**A.** has activities against

**Q.** And the “protein cleavage assay (SDS-PAGE)” value (ENA-78)?
**A.** has activities against

**Q.** What about the “digestion (SDS-PAGE)” value (lysozyme) of the same protein?
**A.** did not digest

**Q.** And the “casein activity assay (SDS-PAGE)” value (β-casein)?
**A.** cleaving only α-casein in a limited manner

**Q.** And the “protein cleavage assay (SDS-PAGE)” value (human C5a, P01031)?
**A.** has activities against

**Q.** What about the “protein cleavage assay (SDS-PAGE)” value (TNF-α) of the same protein?
**A.** has activities against

**Q.** And the “proteolytic activity (SDS-PAGE)” value (C3, P01024)?
**A.** None of the complement proteins tested show evidence of breakdown

**Q.** And the “proteolytic activity (SDS-PAGE)” value (C1s, P09871)?
**A.** None of the complement proteins tested show evidence of breakdown
